The experiment concerns the target moth cytochrome c, MCC(99K), wild-type peptide peptide on I-Ek (mouse). Kind of experiment: C1/2wt: antigen concentration for half-maximal IL-2 with wild-type I-Ek CHO APC.

On to 2B4, for which the EC50 of peptide turned out to be 25 nM.

For the origin of these results see article PMC2191102.
